# Test results as given in paper PMC9482650, “Quantitative fragmentomics allow affinity mapping of interactomes” (Nature Communications, 2022).
# T1: APBA1_1, Q02410
# T1 sequence (Q02410 651-752, limits assumed, looked up): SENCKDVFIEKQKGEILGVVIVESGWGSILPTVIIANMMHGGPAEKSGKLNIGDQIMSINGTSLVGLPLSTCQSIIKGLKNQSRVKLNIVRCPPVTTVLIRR
# T2: DLG3_1, Q92796
# T2 sequence (Q92796 125-227, limits assumed, looked up): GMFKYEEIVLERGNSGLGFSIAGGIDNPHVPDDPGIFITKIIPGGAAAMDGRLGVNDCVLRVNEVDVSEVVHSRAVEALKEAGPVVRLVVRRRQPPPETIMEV
# T3: DLG3_2, Q92796
# T3 sequence (Q92796 221-321, limits assumed, looked up): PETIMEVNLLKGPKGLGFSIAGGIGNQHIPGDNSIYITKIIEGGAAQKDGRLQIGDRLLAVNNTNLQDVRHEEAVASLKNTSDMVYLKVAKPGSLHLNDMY
# T4: DLG3_3, Q92796
# T4 sequence (Q92796 374-475, limits assumed, looked up): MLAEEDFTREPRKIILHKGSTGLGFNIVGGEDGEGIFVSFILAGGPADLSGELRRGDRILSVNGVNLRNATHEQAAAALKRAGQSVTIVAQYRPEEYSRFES
# T5: GRIP1_2, Q9Y3R0
# T5 sequence (Q9Y3R0 145-248, limits assumed, looked up): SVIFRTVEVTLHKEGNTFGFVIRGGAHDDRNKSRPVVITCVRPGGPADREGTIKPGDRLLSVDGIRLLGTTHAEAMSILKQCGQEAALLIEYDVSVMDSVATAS
# T6: LIN7B, Q9HAP6
# T6 sequence (Q9HAP6 88-185, limits assumed, looked up): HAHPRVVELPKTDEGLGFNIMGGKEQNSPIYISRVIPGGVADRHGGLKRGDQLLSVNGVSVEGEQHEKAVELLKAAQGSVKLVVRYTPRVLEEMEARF
# T7: MPP2, Q14168
# T7 sequence (Q14168 180-250, limits assumed, looked up): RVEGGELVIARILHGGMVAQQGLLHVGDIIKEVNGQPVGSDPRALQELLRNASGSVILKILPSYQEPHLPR
# T8: NHERF3_3, Q5T2W1
# T8 sequence (Q5T2W1 238-333, limits assumed, looked up): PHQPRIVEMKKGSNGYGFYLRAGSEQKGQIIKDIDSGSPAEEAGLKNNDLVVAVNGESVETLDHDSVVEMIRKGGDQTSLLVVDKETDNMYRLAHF
# T9: PTPN13_1, Q12923
# T9 sequence (Q12923 1088-1188, limits assumed, looked up): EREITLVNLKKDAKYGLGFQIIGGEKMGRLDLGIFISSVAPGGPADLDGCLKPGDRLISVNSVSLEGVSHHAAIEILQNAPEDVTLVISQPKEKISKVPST
# T10: SNTG1, Q9NSN8
# T10 sequence (Q9NSN8 52-150, limits assumed, looked up): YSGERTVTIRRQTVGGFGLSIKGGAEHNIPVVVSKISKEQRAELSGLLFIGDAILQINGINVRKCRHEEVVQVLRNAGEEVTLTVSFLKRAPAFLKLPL
# T11: TJP3_3, O95049
# T11 sequence (O95049 375-456, limits assumed, looked up): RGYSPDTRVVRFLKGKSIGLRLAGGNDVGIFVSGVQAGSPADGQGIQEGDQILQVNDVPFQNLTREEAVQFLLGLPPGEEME
# T12: TX1BP3, O14907
# T12 sequence (O14907 10-122, limits assumed, looked up): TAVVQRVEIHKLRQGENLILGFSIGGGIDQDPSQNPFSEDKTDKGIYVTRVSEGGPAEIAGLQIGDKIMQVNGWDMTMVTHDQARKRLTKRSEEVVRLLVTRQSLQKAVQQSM
# Key:
# Assay in all cases: holdup assay
# Parameters in all cases: key: below the threshold = too weak to quantify, mostly under pKd 3.1 to 4
# APBA1_1, Q02410 = target: T1, APBA1_1, Q02410
# CASK, O14936 = target: CASK, O14936
# DLG3_1, Q92796 = target: T2, DLG3_1, Q92796
# DLG3_2, Q92796 = target: T3, DLG3_2, Q92796
# DLG3_3, Q92796 = target: T4, DLG3_3, Q92796
# DLG4_2, P78352 = target: DLG4_2, P78352
# FRMPD2_3, Q68DX3 = target: FRMPD2_3, Q68DX3
# GIPC2, Q8TF65 = target: GIPC2, Q8TF65
# GRIP1_2, Q9Y3R0 = target: T5, GRIP1_2, Q9Y3R0
# Inadl_3, Q8NI35 = target: Inadl_3, Q8NI35
# Inadl_8, Q8NI35 = target: Inadl_8, Q8NI35
# Inadl_9, Q8NI35 = target: Inadl_9, Q8NI35
# LIN7B, Q9HAP6 = target: T6, LIN7B, Q9HAP6
# LNX1_1, Q8TBB1 = target: LNX1_1, Q8TBB1
# LNX1_2, Q8TBB1 = target: LNX1_2, Q8TBB1
# MAGI1_1, Q96QZ7 = target: MAGI1_1, Q96QZ7
# MAGI2_4, Q86UL8 = target: MAGI2_4, Q86UL8
# MAGI2_6, Q86UL8 = target: MAGI2_6, Q86UL8
# MPP2, Q14168 = target: T7, MPP2, Q14168
# NHERF3_3, Q5T2W1 = target: T8, NHERF3_3, Q5T2W1
# NHERF4_4, Q86UT5 = target: NHERF4_4, Q86UT5
# PTPN13_1, Q12923 = target: T9, PTPN13_1, Q12923
# SNTG1, Q9NSN8 = target: T10, SNTG1, Q9NSN8
# TJP1_3, Q07157 = target: TJP1_3, Q07157
# TJP3_3, O95049 = target: T11, TJP3_3, O95049
# TX1BP3, O14907 = target: T12, TX1BP3, O14907
# [1] = plain residues with an end cap or a label only (N-terminal biotin on a linker: ahx)
# [2] = plain residues with an end cap or a label only (N-terminal biotin on a linker: ttds)
# Chain of FRMPD2_3, Q68DX3 (Q68DX3 1073-1166): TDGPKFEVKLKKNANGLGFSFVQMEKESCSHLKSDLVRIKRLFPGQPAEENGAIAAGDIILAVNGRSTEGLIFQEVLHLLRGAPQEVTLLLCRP
# Chain of CASK, O14936 (O14936 487-570): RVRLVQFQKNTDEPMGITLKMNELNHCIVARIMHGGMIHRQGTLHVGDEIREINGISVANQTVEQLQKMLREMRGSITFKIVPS
# Chain of Inadl_9, Q8NI35 (Q8NI35 1530-1615): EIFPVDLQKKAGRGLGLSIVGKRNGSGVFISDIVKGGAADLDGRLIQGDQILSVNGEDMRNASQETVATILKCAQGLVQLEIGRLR
# Chain of NHERF4_4, Q86UT5 (Q86UT5 464-550): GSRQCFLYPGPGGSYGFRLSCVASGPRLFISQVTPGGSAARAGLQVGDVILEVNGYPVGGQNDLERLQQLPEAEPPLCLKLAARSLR
# Chain of TJP1_3, Q07157 (Q07157 416-512): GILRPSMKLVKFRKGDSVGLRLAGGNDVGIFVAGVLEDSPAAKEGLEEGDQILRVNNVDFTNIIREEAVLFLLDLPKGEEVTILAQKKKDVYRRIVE
# Chain of MAGI2_4, Q86UL8 (Q86UL8 772-865): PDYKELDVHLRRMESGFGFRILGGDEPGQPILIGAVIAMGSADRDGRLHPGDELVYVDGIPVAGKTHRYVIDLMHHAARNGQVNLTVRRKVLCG
# Chain of LNX1_2, Q8TBB1 (Q8TBB1 371-470): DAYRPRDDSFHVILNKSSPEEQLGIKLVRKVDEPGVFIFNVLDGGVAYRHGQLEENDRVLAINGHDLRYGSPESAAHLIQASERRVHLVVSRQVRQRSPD
# Chain of MAGI2_6, Q86UL8 (Q86UL8 1141-1229): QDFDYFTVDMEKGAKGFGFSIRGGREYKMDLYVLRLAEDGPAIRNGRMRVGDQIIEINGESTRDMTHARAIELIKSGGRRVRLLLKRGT
# Chain of DLG4_2, P78352 (P78352 155-259): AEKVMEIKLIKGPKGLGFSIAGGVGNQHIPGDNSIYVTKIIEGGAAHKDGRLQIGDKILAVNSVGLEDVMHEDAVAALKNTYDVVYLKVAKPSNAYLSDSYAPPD
# Chain of LNX1_1, Q8TBB1 (Q8TBB1 261-371): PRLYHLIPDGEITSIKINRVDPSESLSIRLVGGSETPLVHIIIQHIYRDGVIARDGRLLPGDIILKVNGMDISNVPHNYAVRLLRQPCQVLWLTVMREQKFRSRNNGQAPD
# Chain of Inadl_3, Q8NI35 (Q8NI35 359-469): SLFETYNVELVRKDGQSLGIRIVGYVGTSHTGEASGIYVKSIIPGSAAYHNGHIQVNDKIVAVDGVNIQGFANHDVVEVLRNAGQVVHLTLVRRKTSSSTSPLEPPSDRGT
# Chain of MAGI1_1, Q96QZ7 (Q96QZ7 1-106): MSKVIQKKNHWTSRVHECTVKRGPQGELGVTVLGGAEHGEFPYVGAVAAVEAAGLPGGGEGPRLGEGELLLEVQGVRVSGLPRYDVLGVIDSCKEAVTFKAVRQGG
# Chain of Inadl_8, Q8NI35 (Q8NI35 1425-1530): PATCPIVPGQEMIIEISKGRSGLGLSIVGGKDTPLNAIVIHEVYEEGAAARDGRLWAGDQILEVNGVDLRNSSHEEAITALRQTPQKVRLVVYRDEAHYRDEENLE
# Chain of GIPC2, Q8TF65 (Q8TF65 112-203): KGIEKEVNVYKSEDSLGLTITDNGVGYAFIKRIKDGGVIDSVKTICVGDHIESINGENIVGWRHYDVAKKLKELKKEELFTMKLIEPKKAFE
binder,measurement,setting,value
"GYDWGPATDL [TJP3, O95049]",pKd,"APBA1_1, Q02410; [1]",below the threshold
same,pKd,"CASK, O14936; [1]",below the threshold
same,pKd,"DLG3_1, Q92796; [1]",3.48
same,pKd,"DLG3_2, Q92796; [1]",3.78
same,pKd,"DLG3_3, Q92796; [1]",below the threshold
same,pKd,"DLG4_2, P78352; [1]",3.68
same,pKd,"FRMPD2_3, Q68DX3; [1]",below the threshold
same,pKd,"GIPC2, Q8TF65; [1]",3.73
same,pKd,"GRIP1_2, Q9Y3R0; [1]",below the threshold
same,pKd,"Inadl_3, Q8NI35; [1]",3.72
same,pKd,"Inadl_8, Q8NI35; [1]",3.49
same,pKd,"Inadl_9, Q8NI35; [1]",3.6
same,pKd,"LIN7B, Q9HAP6; [1]",below the threshold
same,pKd,"LNX1_1, Q8TBB1; [1]",4.84
same,pKd,"LNX1_2, Q8TBB1; [1]",below the threshold
same,pKd,"MAGI1_1, Q96QZ7; [1]",below the threshold
same,pKd,"MAGI2_4, Q86UL8; [1]",3.49
same,pKd,"MAGI2_6, Q86UL8; [1]",5.24
same,pKd,"MPP2, Q14168; [1]",below the threshold
same,pKd,"NHERF3_3, Q5T2W1; [1]",below the threshold
same,pKd,"NHERF4_4, Q86UT5; [1]",below the threshold
same,pKd,"PTPN13_1, Q12923; [1]",below the threshold
same,pKd,"SNTG1, Q9NSN8; [1]",4.33
same,pKd,"TJP1_3, Q07157; [1]",below the threshold
same,pKd,"TJP3_3, O95049; [1]",below the threshold
same,pKd,"TX1BP3, O14907; [1]",4.39
"RLQRRRETQV [HPV18-E6, P06463]",pKd,"APBA1_1, Q02410; [2]",below the threshold
same,pKd,"CASK, O14936; [2]",below the threshold
same,pKd,"DLG3_1, Q92796; [2]",4.34
same,pKd,"DLG3_2, Q92796; [2]",5.46
same,pKd,"DLG3_3, Q92796; [2]",5.44
same,pKd,"DLG4_2, P78352; [2]",5.46
same,pKd,"FRMPD2_3, Q68DX3; [2]",below the threshold
same,pKd,"GIPC2, Q8TF65; [2]",below the threshold
same,pKd,"GRIP1_2, Q9Y3R0; [2]",below the threshold
same,pKd,"Inadl_3, Q8NI35; [2]",below the threshold
same,pKd,"Inadl_8, Q8NI35; [2]",3.32
same,pKd,"Inadl_9, Q8NI35; [2]",below the threshold
same,pKd,"LIN7B, Q9HAP6; [2]",3.58
same,pKd,"LNX1_1, Q8TBB1; [2]",below the threshold
same,pKd,"LNX1_2, Q8TBB1; [2]",below the threshold
same,pKd,"MAGI1_1, Q96QZ7; [2]",below the threshold
same,pKd,"MAGI2_4, Q86UL8; [2]",4.28
same,pKd,"MAGI2_6, Q86UL8; [2]",below the threshold
same,pKd,"MPP2, Q14168; [2]",below the threshold
same,pKd,"NHERF3_3, Q5T2W1; [2]",below the threshold
same,pKd,"NHERF4_4, Q86UT5; [2]",below the threshold
same,pKd,"PTPN13_1, Q12923; [2]",below the threshold
same,pKd,"SNTG1, Q9NSN8; [2]",3.93
same,pKd,"TJP1_3, Q07157; [2]",below the threshold
same,pKd,"TJP3_3, O95049; [2]",below the threshold
same,pKd,"TX1BP3, O14907; [2]",4.67
"RLPKIKETTV [FRMPD4, Q14CM0]",pKd,"APBA1_1, Q02410; [2]",below the threshold
same,pKd,"CASK, O14936; [2]",below the threshold
same,pKd,"DLG3_1, Q92796; [2]",4.51
same,pKd,"DLG3_2, Q92796; [2]",5.6
same,pKd,"DLG3_3, Q92796; [2]",5.21
same,pKd,"DLG4_2, P78352; [2]",5.6
same,pKd,"FRMPD2_3, Q68DX3; [2]",below the threshold
same,pKd,"GIPC2, Q8TF65; [2]",below the threshold
same,pKd,"GRIP1_2, Q9Y3R0; [2]",below the threshold
same,pKd,"Inadl_3, Q8NI35; [2]",below the threshold
same,pKd,"Inadl_8, Q8NI35; [2]",3.98
same,pKd,"Inadl_9, Q8NI35; [2]",3.48
same,pKd,"LIN7B, Q9HAP6; [2]",4.52
same,pKd,"LNX1_1, Q8TBB1; [2]",below the threshold
same,pKd,"LNX1_2, Q8TBB1; [2]",3.42
same,pKd,"MAGI1_1, Q96QZ7; [2]",below the threshold
same,pKd,"MAGI2_4, Q86UL8; [2]",4.24
same,pKd,"MAGI2_6, Q86UL8; [2]",3.98
same,pKd,"MPP2, Q14168; [2]",below the threshold
same,pKd,"NHERF3_3, Q5T2W1; [2]",below the threshold
same,pKd,"NHERF4_4, Q86UT5; [2]",below the threshold
same,pKd,"PTPN13_1, Q12923; [2]",below the threshold
same,pKd,"SNTG1, Q9NSN8; [2]",5.02
same,pKd,"TJP1_3, Q07157; [2]",below the threshold
same,pKd,"TJP3_3, O95049; [2]",below the threshold
same,pKd,"TX1BP3, O14907; [2]",4.57
